Here are results for three molecules from paper PMC4046112, “eIF2B is a decameric guanine nucleotide exchange factor with a γ2ε2 tetrameric core” (Nature Communications, 2014).

Common to all, as to experiment: native MS; FLAG-purified four-subunit eIF2Bβδγε in ammonium acetate, without and with 10% acetonitrile; octamer = two copies of each of four subunits
Series [1] addresses yeast four subunit complex lacking the α-subunit, eIF2Bβδγε (octamer) (S. cerevisiae) (UniProt P32502).
For series [2], the target named is T1, eIF2Bδ (δ-subunit of yeast eIF2B) (S. cerevisiae, UniProt P12754 1-651).
T1 construct: eIF2B delta subunit (GCD2), S. cerevisiae; Subunit of the purified eIF2B complexes, written alone for the subunit pairs; also called eIF2B δ-subunit; δ/Gcd2
T1 sequence (looked up): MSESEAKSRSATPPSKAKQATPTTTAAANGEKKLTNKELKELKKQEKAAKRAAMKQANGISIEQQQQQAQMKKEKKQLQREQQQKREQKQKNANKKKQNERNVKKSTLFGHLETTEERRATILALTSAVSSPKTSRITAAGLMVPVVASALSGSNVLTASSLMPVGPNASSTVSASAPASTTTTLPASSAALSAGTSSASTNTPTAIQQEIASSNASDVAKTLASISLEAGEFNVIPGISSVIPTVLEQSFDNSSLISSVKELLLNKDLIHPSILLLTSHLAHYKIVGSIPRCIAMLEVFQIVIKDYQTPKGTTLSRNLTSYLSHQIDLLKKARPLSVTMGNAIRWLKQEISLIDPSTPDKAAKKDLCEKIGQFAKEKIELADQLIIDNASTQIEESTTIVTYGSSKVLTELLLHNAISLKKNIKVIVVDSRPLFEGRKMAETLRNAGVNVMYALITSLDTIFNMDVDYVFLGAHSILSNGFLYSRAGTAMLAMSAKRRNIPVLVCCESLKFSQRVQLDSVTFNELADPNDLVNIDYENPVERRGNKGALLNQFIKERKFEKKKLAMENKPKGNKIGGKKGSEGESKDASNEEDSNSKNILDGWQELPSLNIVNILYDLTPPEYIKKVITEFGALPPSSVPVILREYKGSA
To be noted: both partners purified.

Series [3] deals with T2, eIF2Bε (ε-subunit of yeast eIF2B, untagged) (S. cerevisiae, UniProt P32501 1-712).
T2 construct: eIF2B epsilon subunit (GCD6), S. cerevisiae; Subunit of the purified eIF2B complexes, written alone for the subunit pairs; also called eIF2B ε-subunit; ε/GCD6
T2 sequence (looked up): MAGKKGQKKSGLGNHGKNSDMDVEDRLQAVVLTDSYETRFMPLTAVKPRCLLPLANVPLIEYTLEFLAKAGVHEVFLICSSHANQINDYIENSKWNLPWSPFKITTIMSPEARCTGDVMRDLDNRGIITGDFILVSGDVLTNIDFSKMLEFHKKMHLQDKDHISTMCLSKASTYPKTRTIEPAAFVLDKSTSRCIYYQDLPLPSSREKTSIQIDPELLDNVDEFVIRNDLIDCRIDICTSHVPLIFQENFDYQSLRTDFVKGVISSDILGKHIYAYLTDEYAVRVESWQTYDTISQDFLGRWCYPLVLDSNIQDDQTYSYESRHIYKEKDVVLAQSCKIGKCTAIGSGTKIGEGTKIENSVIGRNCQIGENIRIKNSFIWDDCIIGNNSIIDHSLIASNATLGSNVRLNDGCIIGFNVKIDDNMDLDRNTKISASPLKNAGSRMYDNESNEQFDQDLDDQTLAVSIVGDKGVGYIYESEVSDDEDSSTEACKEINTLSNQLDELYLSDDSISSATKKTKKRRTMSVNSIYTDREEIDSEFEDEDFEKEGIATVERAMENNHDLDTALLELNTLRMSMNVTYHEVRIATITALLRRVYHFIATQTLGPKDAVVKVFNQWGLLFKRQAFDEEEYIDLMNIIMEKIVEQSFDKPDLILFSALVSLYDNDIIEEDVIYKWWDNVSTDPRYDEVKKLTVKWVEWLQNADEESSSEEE
To be noted: both partners purified.

Series [4] concerns the molecule itself.

Consider “yeast four subunit complex lacking the α-subunit, eIF2Bβδγε (octamer), P32502 1-381; P12754 1-651; P09032 1-578; P32501 1-712”, for which the stoichiometry N (in general, the number of molecules, sites or subunits per partner or assembly) in series [1] came out at 8.

B1: eIF2Bγ, FLAG-tagged (γ-subunit of yeast eIF2B) (natural protein, S. cerevisiae, UniProt P09032 1-578, looked up)
chain: MSIQAFVFCGKGSNLAPFTQPDFPFQTQNKDSTAATSGDKLNELVNSALDSTVINEFMQHSTRLPKALLPIGNRPMIEYVLDWCDQADFKEISVVAPVDEIELIESGLTSFLSLRKQQFELIYKALSNSNHSHHLQDPKKINFIPSKANSTGESLQKELLPRINGDFVILPCDFVTDIPPQVLVDQFRNRDDNNLAMTIYYKNSLDSSIDKKQQQKQKQQQFFTVYSENEDSERQPILLDVYSQRDVTKTKYLQIRSHLLWNYPNLTVSTKLLNSFIYFCSFELCQLLKLGPQSMSRQASFKDPFTGNQQQQNPPTTDDDEDRNHDDDDDYKPSATSIQPTYFKKKNDLILDPINCNKSLSKVFRDLSRRSWQHSKPREPIGIFILPNETLFIRANNLNAYMDANRFVLKIKSQTMFTKNIQIQSAAIGADAIVDPKCQISAHSNVKMSVLGTQANIGSRCRVAGSLLFPGVHLGDEVILENCIIGPMAKIGSKCKLSNCYIEGHYVVEPKNNFKGETLANVYLDEDEEDELIYDDSVIAGESEIAEETDSDDRSDEDSDDSEYTDEYEYEDDGLFER
notes: eIF2B gamma subunit (GCD1), S. cerevisiae; Bait of all eIF2B complex purifications; also called GCD1-FLAG2-His6; source: S. cerevisiae strains overexpressing eIF2B subunits, purified (anti-FLAG resin, FLAG peptide elution); not shown: FLAG2, C-terminal, kept
For B1, the binding result in series [2] and in series [3] was “binds” in each case.

B2: eIF2Bγε core complex (complex, S. cerevisiae)
chain 1: MSIQAFVFCGKGSNLAPFTQPDFPFQTQNKDSTAATSGDKLNELVNSALDSTVINEFMQHSTRLPKALLPIGNRPMIEYVLDWCDQADFKEISVVAPVDEIELIESGLTSFLSLRKQQFELIYKALSNSNHSHHLQDPKKINFIPSKANSTGESLQKELLPRINGDFVILPCDFVTDIPPQVLVDQFRNRDDNNLAMTIYYKNSLDSSIDKKQQQKQKQQQFFTVYSENEDSERQPILLDVYSQRDVTKTKYLQIRSHLLWNYPNLTVSTKLLNSFIYFCSFELCQLLKLGPQSMSRQASFKDPFTGNQQQQNPPTTDDDEDRNHDDDDDYKPSATSIQPTYFKKKNDLILDPINCNKSLSKVFRDLSRRSWQHSKPREPIGIFILPNETLFIRANNLNAYMDANRFVLKIKSQTMFTKNIQIQSAAIGADAIVDPKCQISAHSNVKMSVLGTQANIGSRCRVAGSLLFPGVHLGDEVILENCIIGPMAKIGSKCKLSNCYIEGHYVVEPKNNFKGETLANVYLDEDEEDELIYDDSVIAGESEIAEETDSDDRSDEDSDDSEYTDEYEYEDDGLFER
chain 2: MAGKKGQKKSGLGNHGKNSDMDVEDRLQAVVLTDSYETRFMPLTAVKPRCLLPLANVPLIEYTLEFLAKAGVHEVFLICSSHANQINDYIENSKWNLPWSPFKITTIMSPEARCTGDVMRDLDNRGIITGDFILVSGDVLTNIDFSKMLEFHKKMHLQDKDHISTMCLSKASTYPKTRTIEPAAFVLDKSTSRCIYYQDLPLPSSREKTSIQIDPELLDNVDEFVIRNDLIDCRIDICTSHVPLIFQENFDYQSLRTDFVKGVISSDILGKHIYAYLTDEYAVRVESWQTYDTISQDFLGRWCYPLVLDSNIQDDQTYSYESRHIYKEKDVVLAQSCKIGKCTAIGSGTKIGEGTKIENSVIGRNCQIGENIRIKNSFIWDDCIIGNNSIIDHSLIASNATLGSNVRLNDGCIIGFNVKIDDNMDLDRNTKISASPLKNAGSRMYDNESNEQFDQDLDDQTLAVSIVGDKGVGYIYESEVSDDEDSSTEACKEINTLSNQLDELYLSDDSISSATKKTKKRRTMSVNSIYTDREEIDSEFEDEDFEKEGIATVERAMENNHDLDTALLELNTLRMSMNVTYHEVRIATITALLRRVYHFIATQTLGPKDAVVKVFNQWGLLFKRQAFDEEEYIDLMNIIMEKIVEQSFDKPDLILFSALVSLYDNDIIEEDVIYKWWDNVSTDPRYDEVKKLTVKWVEWLQNADEESSSEEE
notes: eIF2B gamma subunit (GCD1), S. cerevisiae; eIF2B epsilon subunit (GCD6), S. cerevisiae; Seen as γε dimer (predominant) and γ2ε2 tetramer; the self row stands for two γε dimers joined in the tetramer; also called γε dimer; γ2ε2 tetramer; source: S. cerevisiae, purified by the FLAG-tagged γ-subunit (anti-FLAG resin); also formed from eIF2Bβδγε on adding 10% acetonitrile; not shown: FLAG2, …
Consider B2, for which the “stoichiometry N” value in series [4] was found to be 4.
